Source: paper PMC8145704 (Microorganisms, 2021)
Ends that are not written are not given here.

Experiments:
Settings in all cases: both partners purified
[1] = target: T1, WT-HBc capsids (hepatitis B core protein, genotype D; strain ayw; GenBank: V01460.1) (Hepatitis B virus (genotype D; strain …, UniProt P03146 1-183); assay: ITC
T1 construct: also called HBc-WT; HBc-CLPs; copies: 240

[2] = target: T2, F97L-HBc capsids (Hepatitis B virus (genotype D; strain …, UniProt P03146 1-183, F97L); assay: ITC
T2 construct: copies: 240

[3] = target: T3, P5T-HBc capsids (Hepatitis B virus (genotype D; strain …, UniProt P03146 1-183, P5T); assay: ITC
T3 construct: copies: 240

[4] = target: T4, L60V-HBc capsids (Hepatitis B virus (genotype D; strain …, UniProt P03146 1-183, L60V); assay: ITC
T4 construct: copies: 240

[5] = target: T1, WT-HBc capsids (hepatitis B core …); assay: peptide or protein array
[6] = target: T2, F97L-HBc capsids; assay: cryo-EM structure
[7] = target: T3, P5T-HBc capsids; assay: cryo-EM structure
[8] = target: T4, L60V-HBc capsids; assay: cryo-EM structure

B1: Peptide “SLLGRM” (core binding motif) (peptide)
peptide: H-SLLGRM-NH2
notes: shortened stretch of P2; source: synthetic peptide (Fmoc solid-phase synthesis, HPLC purified)
Which Kd [1] does the source give for B1 here?
Its Kd is 130 µM.

What about the dH [1] of the same binder?
Its dH is -8.3 kcal/mol.

And the “stoichiometry N” value [1]?
The value was 0.25 peptide/HBc.

What does the source list for GSLLGRMKGA (source: synthetic peptide) [Peptide P2 “GSLLGRMKGA”]?
dH [1]: -14.4 kcal/mol; stoichiometry N [1]: 0.48 peptide/HBc; dH [2]: -9.9 kcal/mol; stoichiometry N [2]: 0.52 peptide/HBc; dH [3]: -7.7 kcal/mol; stoichiometry N [3]: 0.45 peptide/HBc; dH [4]: -6.6 kcal/mol; stoichiometry N [4]: 0.5 peptide/HBc

Does GSLLGRMKGA (not fully specified (C-terminus)) [Peptide P2 “GSLLGRMKGA” on µSPOT peptide microarray] bind [5]?
Result: binds

MHRSLLGRMKGA (source: synthetic peptide) [Peptide P1 “MHRSLLGRMKGA”] was tested. Which Kd [1] did it give?
The Kd was 26 µM.

What about the dH [1] of the same binder?
The dH was -9 kcal/mol.

What about the “stoichiometry N” value [1] of the same binder?
The value was 0.45 peptide/HBc.

Does MHRSLLGRMKGA (source: synthetic peptide) [Peptide P1 “MHRSLLGRMKGA”] bind [6]?
Result: binds

Does MHRSLLGRMKGA (source: synthetic peptide) [Peptide P1 “MHRSLLGRMKGA”] bind [7]?
Result: binds

Does MHRSLLGRMKGA (source: synthetic peptide) [Peptide P1 “MHRSLLGRMKGA”] bind [8]?
Result: binds
